Results on 2 substances are retold here after US20050221391A1, “Reagents and methods for identification of binding agents” (priority 2000, published 2005).

The target of test [1] is tau231P (tau peptide phosphorylated at threonine 231) (Homo sapiens, UniProt P10636). Briefly: ELISA binding to immobilized biotinylated tau231P phosphopeptide. The conditions noted are these: synthetic phosphopeptide. The method, then:
To identify compounds which bind to tau peptides phosphorylated on threonine 231, a 96 well or […] ELISA plate is coated with Neuravidin in 20 mM K2HPO4/10 mM KH2PO4, 1 mM EDTA, 0.8% NaCl, 0.01% NAN3, pH 7.2, using a protein concentration of 5 micrograms per ml. All volumes in ELISA plates are 50 microliters, except for storage, where 200 microliters is added. After coating, plates are incubated with 10 mM tris base, 150 mM NaCl, pH 7.4 CIBS) containing 2% bovine serum albumin (BSA) and stored at 4 °C. Plates prepared this way are stable for several weeks.
A peptide derived from the protein tau was utilized, as shown below: • Biotin-KKVAVR(phospho)TPPKSPSS (SEQ D NO. 1) The peptide was diluted to a concentration of 0.5 micromolar in TBS containing 2% BSA, and 50 microliters per well were added followed by incubation at room temperature for one hour. Unbound peptide is washed off with TBS containing 0.5% Tween 20. […] Bound antibody is detected by incubation with a solution of goat anti-mouse Ig or goat anti-rabbit Ig coupled to horse radish peroxidase (HRP) (2 micrograms per ml in TBS containing 1% BSA) for one hour, and excess antibody is removed by washing with TBS containing 0.05% Tween 20. HRP activity is determined by addition of a substrate capable of generating a colored or fluorescent product (i.e., ABTS Substrate solution (BioRad Laboratories, Hercules, Calif.)). […]
(In general: In an ELISA, binding on a coated surface is turned into a signal by an enzyme label.)

The target in test [2] is APP668P (APP peptide phosphorylated at threonine 668) (Homo sapiens, UniProt P05067). The test can be described thus: ELISA binding to immobilized biotinylated APP668P phosphopeptide. The conditions noted are these: synthetic phosphopeptide. The source says: It is also possible to practice the method described above using a phosphopeptide corresponding to the sequence of APP. The sequence of one such peptide is shown below: • Biotin-VEVDAAV(phospho)TPEERHLS (SEQ ID NO. 2) In place of the TG3 antibody, a mAb specific for the phosphothreonine 668 of APP is used. The same antibody detection reagents and methods are used as described above. Examples of antibodies useful in this regard include but are not limited to GF1, GF3, GF5, GF7, GF12, GF25, and GF31. Polyclonal antibodies reactive against substantially similar phosphopeptides may also be useful.
Assays have been established in which the tau and APP phosphopeptides are biotinylated and immobilized on Neutravidin-coated 96 well ELISA plates. […] Concentrations of GF31 in the 5 nM range give a robust signal on such plates, and the binding is very sensitive to the presence of an antibody, TG3, which has a high affinity for the tau peptide (FIG. 5B). Duplicate assays are shown in FIG. 5B, illustrating the reproducibility of the assay.

In test [3] the test system is non-phosphorylated tau and APP peptides. Briefly: Binding to the respective non-phosphorylated tau and APP peptides.
In test [4] the target is tau peptide incorporating the phosphorylated threonine 231 site (tau231P), Biotin-KKVAVVR(phospho)TPPKSPSS
Briefly: estimated from other studies, method not described.

Entries after “also recorded” stand apart in the source; their conditions may differ.

Turning to “Pin1: prolyl isomerase which binds phosphorylated serine/threonine-proline bonds in proteins”, the “binding / recognition of tau231P phosphopeptide” value in test [1] is given as “high affinity; also recorded: binds”. In test [2], the “binding / recognition of APP668P phosphopeptide” value was “high affinity; also recorded: binds”. Further, the “binding to the respective non-phosphorylated peptides” value in test [3] is listed as “does not bind”.

The term Kd denotes a measure of binding affinity in units of concentration. Consider monoclonal antibody TG3, for which the dissociation constant Kd in test [4] is 25 nM.
